# Measurements taken from patent publication US20080199473A1 (CLEVELAND CLINIC FOUNDATION, published 2008).
# B1: GST-TWEAK protein (ligand, UniProt O43508 136-249, looked up)
# chain: ARINSSSPLRYNRQIGEFIVTRAGLYYLYCQVHFDEGKAVYLKLDLLVDGVLALRCLEEFSATAASSLGPQLRLCQVSGLLALRPGSSLRIRTLPWAHLKAAPFLTYFGLFQVH
# notes: also called GST-TWEAK fusion protein; not shown: glutathione S-transferase (GST) tag
# Target: T1, 35S-labelled luciferase (UniProt P08659 1-550 = luciferase, 35S label (in-vitro-translated))
# T1 construct: Negative control of the pull-down; also called luciferase (about 61 kDa)
# Test: GST pull-down, 35S-labelled luciferase
# T1 sequence (P08659 whole entry): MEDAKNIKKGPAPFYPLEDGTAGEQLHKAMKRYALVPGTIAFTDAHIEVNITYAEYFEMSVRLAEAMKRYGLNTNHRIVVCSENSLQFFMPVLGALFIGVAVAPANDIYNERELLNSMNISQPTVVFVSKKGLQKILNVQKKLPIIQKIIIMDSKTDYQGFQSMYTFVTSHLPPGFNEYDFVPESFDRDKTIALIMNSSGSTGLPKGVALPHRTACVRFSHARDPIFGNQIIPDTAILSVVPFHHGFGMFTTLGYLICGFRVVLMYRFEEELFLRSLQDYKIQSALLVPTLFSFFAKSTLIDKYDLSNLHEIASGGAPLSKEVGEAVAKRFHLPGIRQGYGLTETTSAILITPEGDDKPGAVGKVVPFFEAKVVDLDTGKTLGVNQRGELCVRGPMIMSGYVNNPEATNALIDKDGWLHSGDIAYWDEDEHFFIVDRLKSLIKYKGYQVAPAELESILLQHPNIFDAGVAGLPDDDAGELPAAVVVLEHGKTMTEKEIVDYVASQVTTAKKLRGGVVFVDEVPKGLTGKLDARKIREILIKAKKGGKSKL
binder,measurement,value
B1,binding result,no binding
